The values below come from article PMC11542851 (PLOS Pathogens, 2024).

Assay [1] addresses T1, SARS-CoV-2 RBD subunit (recombinant) (SARS-CoV-2 Wuhan-Hu-1, UniProt P0DTC2).
The target in assay [2] is T1, SARS-CoV-2 RBD subunit (recombinant). The experiment in a line: ELISA. The conditions noted are these: both partners purified.

Where two headings read alike, the source gives them in different places.

B1: C68.285 (antibody, V domains shown)
VH: QVQLVQSGAEVKKPGASVKVSCKASGYTFSNYFMHWVRQAPGQGLEWMGIINPSGVSTSYAQKFQGRITMTRDTSTSTVYMELSSLRSEDTAVYYCAFEMGAAPFDYWGQGTLVTVSS
VL: DIQLTQSPSFLSASVGDRVTITCRASQGISSYLAWYQQKPGKAPKVLIYDASTLQSGVPSRFSGSGSGTEFTLTISSLQPEDFATYYCQQLNTYPQGLTFGGGTKVEIK
Take B1: the binding result in assay [1] was “binds”.

B2: C68.138 (antibody, V domains shown)
VH: EVQLVQSGAEVKKPGESLRISCKGSGYSSTNYWISWVRQMPGKGLEWMGRIDLSDSYTNYSPSFQGHVTISADKSISTAYLQWSSLKASDTAIYYCARLLTTVTTDWFDPWGQGTLVTVSS
VL: DIQMTQSPSSLSASVGDRVTITCRASQSISNYLNWYQQKPGKAPKLLIYTASSLQSGVPSRFSGSGSGTDFTLSISSLKPEDFATYFCQQSYNAPPYTFGQGTKLQIK
For B2, the binding result in assay [1] is reported as “binds”.

B3: C68.102 (antibody, V domains shown)
VH: QLQLQESGPGLLKPSETLSLTCTVSGGSISSSRYYWGWIRQPPGKGLEWIGSVYYSGTTYYNPSLKSRVTISVDASKNQFSLRLSSVSAADTAVYYCARRLGAIWDWGQGTRVTVSS
VL: DIQLTQSPSSLSASVGDRVTITCRASQGISNSLAWYQQKPGKAPKLLLYAASTLESGVPSRFSGSGSGTDYTLTISSLQPEDFAAYYCQQYYSTPTFGQGTKVEIK
Take B3: in assay [1], the binding result is on record as “binds”.

B4: C68.304 (antibody, V domains shown)
VH: EVQLVESGGGVVQPGRSLRLSCAASGFIFSNYDMHWVRQAPGKGLEWVAVIWYDGSNKYYADSVKGRFTISRDNSKNTLYLQMNSLRADDTAMYYCSRHDSGTYYYFDSWGQGTLVTVSS
VL: LTVVTQEPSFSVSPGGTVTLTCGLSSGSVSTSYYPSWYQQTPGQPPRTLIYTTITRSSGVPDRFSGSILGNKAALTITGAQGDDESDYYCVLYMGSGNWVFGGGTKLTVL
As to B4, the binding result in assay [1] was “binds”.

B5: C68.175 (antibody, V domains shown)
VH: EVQLLESGGGLVQPGGSLRLSCAASGFTFSSYAMSWVRQAPGKGLEWVSGISGSGGSTYYADSVKGRFTISRDNSKNTLHLQMNSLRAEDTAVYYCAKGSRWNPDYFDYWGQGTLVTVSS
VL: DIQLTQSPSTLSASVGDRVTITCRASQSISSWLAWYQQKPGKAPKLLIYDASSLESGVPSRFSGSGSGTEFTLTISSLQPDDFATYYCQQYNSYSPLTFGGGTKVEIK
Consider B5, for which, in assay [2], the binding result was “binds”.

B6: C68.100 (antibody, V domains shown)
VH: EVQLVQSGAEVKKPGESLRISCKGSGYIFNSYWIIWVRQMPGKGLEWMGRIDPSDSYTNYSPSFQGHVTMSVDKSINTAYLQWSSLKASDTAMYYCARVRFGELSWDTFDYWGQGTLVTVSS
VL: DIQVTQSPSSLSASVGDRVTITCRASQSMSYYLNWYQQKPGKAPKLLISAASSLQSGVPSRFSGSGSGTDFTLTISSLQPEDFATYYCQQSYSTPYTFGQGTKLEIK
Consider B6, for which the binding result in assay [1] is “binds”.

B7: C68.256 (antibody, V domains shown)
VH: QVQLQESGPGLVKPSETLSLTCSVSGGSISSSSSYWGWIRQPPGKGLEWIGNIDYSGSTYYNPSLKSRVTISVDTSKNQFSLKLSSVTAADTAVYFCARGADYGPYFDYWGQGALLTVSS
VL: QSALTQPASVSGSPGQSITISCTGTSSDVGSYNLVSWYQHHPGKAPKLMIYEVSKRPSGVSNRLSGSKSGNTASLTISGLQAEDEADYYCSSYAGSSTFVVFGGGTKLTVL
On to B7, for which, in assay [1], the binding result was “binds”.

B8: C68.286 (antibody, V domains shown)
VH: QSTLKESGPALVKPTQTLTLTCTFSGFSLSTSGMCVSWIRQPPGKALEWLARIDWDDDKYYSTSLETRLTISKDTSKNQVVLTMTNMDPVDTATYYCARMTVAGPSLDYWGQGTLVTVSS
VL: not shown
With B8, the binding result in assay [1] is given as “binds”.

B9: C68.279 (antibody, V domains shown)
VH: EVQLVQSGAEVKKPGESLKISCKGSGYSFNYYWIGWVRQMPGKGLEWMGIIYPGDSDARYSPSFQGQVTISADKSISTAYLQWSSLKASDTAMYYCGRLVGYSHDLYFDYWGQGTLVTVSS
VL: not shown
In the case of B9, the binding result in assay [1] is listed as “binds”.

B10: C68.121 (antibody, V domains shown)
VH: EVQLVESGGGLVKPGGSLRLSCAASGFTFSDYYMTWIRQAPGKGLEWVSKITNSNSYTHYADSVKGRFTISRDNAKNSLFLHMNSLRAEDTAVYYCARAIWIGYPDDYYMDVWGKGTTVTVSS
VL: SYELTQPPSVSVSPGQTARITCSGDTLPNQYVYWYQQKPGQAPVLLIYKDTERPSGIPERVSGSTSGTTVTLTISGVQAEDEADYYCQSADSSGTSFGGGTKLTVL
In the case of B10, the binding result in assay [2] is “binds”.

B11: C68.136 (antibody, V domains shown)
VH: EVQLLESGGGLVQPGGSLRLSCAASGFTFSIYAMSWVRQAPGKGLEWVSGISGSGGSTYYADSVKGRFTLSRDNSKNTLFLQMNSLRAEDTAVYYCAKGEGSVVVVSAGVWGKGTTVTVSS
VL: DIQLTQSPSSLSASVGDRITITCQASQDISKSLNWYQQKPGKAPKVLIYDASNLETGVPSRFSGSGSGTDFTFTISSLQPEDIATYYCQQYDNLRLTFGGGTKVEIK
As for B11, the binding result in assay [1] is reported as “binds”.

B12: C68.180 (antibody, V domains shown)
VH: EVQLVESGGGLVKPGGSLRLSCAASGFTFIDYHMSWIRQAPGKGLEWVSYITTTSSYANYADSVKGRFTISRDNAKNSLFLQMNSLRADDTAVYYCARDRGYDLRFDYWGQGTLVTVSS
VL: DIQMTQSPSSLSASVGDRVTITCQASQGISNYLNWYQKKPGKAPKLLIYDASNLKTGVPSRFSGSGSGTDFTFTISSLQPEDIATYYCQQYDSLPLTFGGGTKVEIK
For the molecule B12, the binding result in assay [1] is reported as “binds”.

B13: C68.281 (antibody, V domains shown)
VH: QVQLVQSGAEVRKPGASVKVSCKASGYNFTSYYMHWVRQAPGQGLEWMGIINPSDGSASYAQKFQGRVTMTRDSSTSTVYMELSSLRSDDTAVYFCARGGRILQWFPYFFDYWGQGTLVTVSS
VL: EIVLTQSPGTLSLSPGERATLSCRASQSVSIRYLAWYQQKPGQAPRLLIYGASSRATGIPDRFSGSGSGTDFTLTISRLEPEDFAVYYCQQYETFGQGTKVEIK
Regarding B13, the binding result in assay [1] was “binds”.

B14: C68.170 (antibody, V domains shown)
VH: QVQLQESGPGLVKPSQTLSLTCTVSGGSISSGGYYWSWIRQHPKKDLEWIGYIYNSGSTYYNPSLKSRVTISIDTTKNQFSLKLSSVTAADTALYYCARSVGAAAQWGGEFDYWGQGTLVTVSS
VL: DIQLTQSPSSLSASVGDRVTITCQASQDISNYLNWYQQKPGKAPKLLIYDVFILQAGVPSRFSGSGSGTDFTFTISSLQPEDIATYYCQQYNHLITFGGGTKVEIK
On to B14, for which, in assay [1], the binding result was “binds”.

B15: C68.123 (antibody, V domains shown)
VH: EVQLVESGGGLVQPGGSLRLSCSASGFTFSSYTLHWVRQAPGKGLEYVSSISSNGGSTYYADSVKGRFTISRDNSKNTLFLQMSSLRAEDTAIYYCVKGVWLHDFWSGYPSRWGQGTPVTVSS
VL: DIQLTQSPSTLSASVGDRVTITCRASQSISNWLAWYQQKPGKAPNLLIYDASSLESGVPSRFSGSGSGTEFTLTISSLQPDDFATYYCQQYNSYPWTFGQGSKVDIK
Regarding B15, the binding result in assay [1] was “binds”.

B16: C68.194 (antibody, V domains shown)
VH: QVQLVQSGAELKRPGASVKVSCKAPGHTFTIYAMHWVRQAPGQRPEWMGWINAGNGDTKYSQKFQGRVTITRDTSASTAYMELSSLRSEDTAVYYCATSGSLRFQVDYFDHWGQGTLVTVSS
VL: DIQLTQSPSTLSASVGDRVTITCRASQSISSWLAWYRQKPGKAPKLLIYDASNLESGVPSRFSGSGSGTEFTLTISSLQPDDFATYYCQQYNSYPWTFGQGTKVEIK
Regarding B16, the binding result in assay [1] is given as “binds”.

B17: C68.220 (antibody, V domains shown)
VH: QVQLLQSGAEVKKPGASVKVSCKASGYTFTIYAMHLVRQAPGQRLEWMGWINTGNGDTKYSQKFQGRVTITRDTSASTAYMELSSLRSEDTAVYYCAISGSRHFQVDYFDYWGQGTLVTVSS
VL: DIQMTQSPSTLSASVGDRVTITCRASQSISRWLAWYQQKPGKAPKLLIYDASSFESGVPSRFSGRGSGTEFTLTISSLQPDDFATYYCQQYKSYPWTFGQGTKVEIK
As for B17, the binding result in assay [1] is “binds”.

B18: C68.236 (antibody, V domains shown)
VH: QVQVVQSGAELKKPGASVKVSCKAPGHTFTIYAMHWVRQAPGQRLEWMGWINAGNGDTKYSQKFQGRVTITRDTSASTAYMELSSLRSEDTAVYYCASSGSRRFQVDYFDYWGQGTLVTVSS
VL: DIQLTQSPSTLSASVGDRVTITCRASQSIRSWLAWYQQKPGKAPKLLIYDASSLESGVPSRFSGSGSGTEFTLTISSLQPDDFATYYCQQYNSYPWTFGQGTKVEIK
For the molecule B18, in assay [1], the binding result was “binds”.

B19: C68.263 (antibody, V domains shown)
VH: EVQLVESGGGVVQPGRSLRLSCAASGFTFSTYAMHWVRQAPGKGLEWVAVISFDGSNTYYADSVKGRFTISRDNSKNTLYLQMNSLRAEDTAVYYCAKDSYYSDRSDYYWRSYGYFGLWGQGTLVTVSS
VL: DIQLTQSPSTLSASVGDRVTITCRASQSISSWLAWYQQKPGKAPKLLIYDASSLESGVPSRFSGSGSGTEFTLTISSLQPDDLATYYCQQYRSYSGTFGQGTKVEIK
In the case of B19, in assay [1], the binding result is on record as “binds”.

B20: C68.225 (antibody, V domains shown)
VH: EVQLVQSGAEVKKPGESLRISCKGSGYSFTNYWISWVRQMPGKGLEWMGRIDPSDSYTDYSPSFQGHVTISTDKSISTAYLQWSSLKASDTAMYYCARPRGIAAVGTGYNWLDPWGQGTLVIVSS
VL: DIQMTQSPSTLSASVGDRVTITCRASQSINSWLAWYQQKPGKAPKLLIYDASSLESGVPSRFSGSGSGTEFTLTISSLQPADFATYYCQQYNALYTFGQGTKLEIK
On to B20, for which, in assay [1], the binding result is reported as “binds”.

B21: C68.233 (antibody, V domains shown)
VH: QVQLVQSGPEVKKPGTSVKVSCKASGFTFTTSAVQWVRQARGLRLEWIGWIVVGSGNTNYGQKFQERVTITRDMSTSTAYMELSSLRSEDTAVYYCAAPHCNRTNCHDGFDIWGQGTMVTVS
VL: EIVLTQSPGTLPLSPGERATLSCRASQSVRSSYLAWYQQKPGQAPRLLIYGASSRATGIPDRFSGSGSGTDFILTISRLEPEDFAVYSCQQYGSSPWTFGQGTKVEIK
With B21, in assay [1], the binding result is reported as “binds”.

B22: C68.83 (antibody, V domains shown)
VH: EVQLVESGGGVVQPGRSLRLSCAASGFIFSSYGMHWVRQAPGKGLEWVAVIWYDGSNKYYADSVKGRFTISRDNSKNTLYLQMNSLRAEDTAVYYCARDDPEVGCSGGSCYYYYDMDVWGQGTTVTVSS
VL: SYELTQPPSVSVSPGQTARITCSGDALPKQHAHWYQQKPGQAPVLVIYKDIERPSGIPERFSGSSSGTTVTLTISGVQAEDEADYYCQSADSSVTYVVFGGGTKLTVL
Regarding B22, the binding result in assay [2] is “binds”.
